Patent US20250346679A1 (INVOX PHARMA, published 2025)

What was measured:
[1] = biological target: mouse CD137, cell-surface (mouse, UniProt P20334 24-256); assay: cell-based or functional assay
human CD40 = human CD40 (human, UniProt P25942 21-193, limits assumed); assay: SPR, receptor amine-coupled to CM5 (~1000 RU)
Method: (§1) The specificity of the anti-human CD137 Fcabs for human CD137 compared to other related TNFSFR family members was tested. 8 of the Fcabs were tested in mock mAb² (HeID1.3) format and measured by SPR in a Biacore T200 (GE Healthcare) by testing for binding to other human TNFRSF receptors: CD40, OX40 and GITR. Amine coupling (amine coupling kit, GE Healthcare, BR-1000-50) was used to coat human CD40, GITR and OX40 to approximately 1000 RU in Biacore CM5 chips (GE Healthcare, cat no 29149603). […] The chip was regenerated by injection of 10 mM glycine pH 2.5 for 12 s at 30 μl/min. Antibodies specific to the different TNFRSF members were used as positive controls to verify Biacore chip coating. Data was double reference subtracted and analysed using BIAevaluation 3.2 software.

human OX40 = biological target: T1, human OX40 (human, UniProt P43489 29-216); assay: SPR, receptor amine-coupled to CM5 (~1000 RU)
T1 sequence (looked up): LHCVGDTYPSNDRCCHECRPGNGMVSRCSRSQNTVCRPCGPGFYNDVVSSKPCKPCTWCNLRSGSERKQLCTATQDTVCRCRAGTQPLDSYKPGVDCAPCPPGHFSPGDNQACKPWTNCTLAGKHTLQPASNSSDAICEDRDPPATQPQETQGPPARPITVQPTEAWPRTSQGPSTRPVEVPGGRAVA
Method: as §1

human GITR = biological target: T2, human GITR (human, UniProt Q9Y5U5 26-161, limits assumed); assay: SPR, receptor amine-coupled to CM5 (~1000 RU)
T2 sequence (looked up): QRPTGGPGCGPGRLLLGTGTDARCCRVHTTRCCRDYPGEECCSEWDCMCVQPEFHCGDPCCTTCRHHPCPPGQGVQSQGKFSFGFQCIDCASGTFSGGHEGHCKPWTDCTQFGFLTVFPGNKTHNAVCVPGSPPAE
Method: as §1

hCD137-mFc-Avi = biological target: T3, hCD137-mFc-Avi (human; mouse, UniProt Q07011 24-186, biotin on the Avi sequence where the biotinylated form was used); assay: SPR, mAb^2 captured by anti-human Fab, antigen in flow, 1:1 Langmuir fit
T3 construct: also called human CD137-mFc-Avi; dimeric human CD137; not shown: mouse IgG2a Fc domain (mIgG2a Fc)
Method: (§2) An anti-human Fab capture antibody was immobilised on all four flow cells of a CM5 series S chip (GE Healthcare #BR-1005-30) to an average surface density of 6000 RU following the manufacturer's recommendations (GE Healthcare, human Fab capture Kit, #28958325). […] Each mAb² was captured to approximately 150 RU by injecting a 3 μg/ml solution of mAb² diluted in HBS-EP+ buffer (GE Healthcare #BR1006-69) for 60 seconds at 30 μl/min. Then different concentrations of human, cyno or mouse CD137 antigen (unbiotinylated human, cyno or mouse CD137-mFc-Avi or human CD137-Avi-His) in HBS-EP+ buffer were flowed over the chip for 3 min at 60 μl/min and then allowed to dissociate for 10 minutes. After each antigen concentration the chip was regenerated by infecting 10 mM glycine pH 2.1 at a flow rate of 30 μl/min for 30 seconds. Buffer HBS-EP+ was injected before the highest concentration of antigen and after the lowest concentration of antigen for reference subtraction, and one of the concentrations at random was repeated twice. The binding kinetics were fit with a 1:1 Langmuir model to generate equilibrium binding constants (KD) for each sample. Data analysis was performed with BiaEvaluation software version 3.2.

hCD137-Avi-His = biological target: T4, hCD137-Avi-His (human, UniProt Q07011 24-186); assay: as above
T4 construct: also called human CD137-Avi-His; monomeric human CD137
Method: as §2

cCD137-mFc-Avi = biological target: T5, cCD137-mFc-Avi (cynomolgus; mouse); assay: as above
T5 construct: also called cynomolgus CD137-mFc-Avi; Cyno CD137-mFc-Avi; not shown: mouse IgG2a Fc domain (mIgG2a Fc)
T5 chain: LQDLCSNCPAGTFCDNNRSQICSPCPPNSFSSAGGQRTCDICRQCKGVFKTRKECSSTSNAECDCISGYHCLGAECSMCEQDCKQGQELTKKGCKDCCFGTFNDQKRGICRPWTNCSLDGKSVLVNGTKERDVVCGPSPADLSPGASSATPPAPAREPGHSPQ
Method: as §2

mCD137-mFc-Avi = biological target: T6, mCD137-mFc-Avi (mouse, UniProt P20334 24-187); assay: as above
T6 construct: also called mouse CD137-mFc-Avi; mouse dimeric CD137; not shown: mouse IgG2a Fc domain (mIgG2a Fc)
T6 sequence: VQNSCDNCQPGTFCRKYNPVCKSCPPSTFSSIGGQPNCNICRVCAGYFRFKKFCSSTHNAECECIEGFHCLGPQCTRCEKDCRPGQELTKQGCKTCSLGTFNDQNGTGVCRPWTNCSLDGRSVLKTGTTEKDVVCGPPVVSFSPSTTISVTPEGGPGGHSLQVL
Method: as §2

[2] = biological target: T7, human PD-L1, cell-surface (human, UniProt Q9NZQ7 19-290); assay: cell-based or functional assay
[3] = biological target: T7, human PD-L1, cell-surface; assay: cell-based or functional assay; remark: listed apart in the source
[4] = biological target: T7, human PD-L1, cell-surface; assay: cell-based or functional assay; remark: listed apart in the source
[5] = biological target: T7, human PD-L1, cell-surface; assay: cell-based or functional assay; remark: listed apart in the source
[6] = biological target: T8, cynomolgus PD-L1, cell-surface (cynomolgus); assay: flow cytometry on HEK.cPD-L1
T8 construct: also called HEK.cPD-L1; HEK.cyPD-L1
Method: (§3) Non-specific binding was also assessed by testing binding to HEK293 parental cells lacking human PD-L1 (Flp-In T-Rex 293 cell line, Life Technologies, R780-07).
(§4) HEK293, HEK.hPD-L1 and HEK.cPD-L1 suspensions were prepared in FACS buffer (DPBS (Gibco, 14190-094) containing 0.5% BSA (Sigma, A7906)) and seeded at 1×10⁵ cell/well in 100 μl in round bottomed 96-well plates (VWR, 734-1797). […] The washed cells were resuspended in the diluted antibody mixture, incubated at 4° C. for 30 minutes, and then washed once in FACS buffer. […] Dead cells were excluded and the fluorescence in the APC channel (638 nm 660/20) was measured. The geometric mean fluorescence intensity (GMFI) values were plotted vs the log concentration of antibody and the resulting curves were fitted using the log (agonist) vs response equation in GraphPad Prism.

[7] = biological target: T7, human PD-L1, cell-surface; assay: flow cytometry on HEK.hPD-L1
Method: as §3, §4

[8] = biological target: T9, biotinylated hPD-L1-Avi-His (Acro Biosystems, PD1-H82E5) (human, UniProt Q9NZQ7 19-238, biotinylated); assay: SPR, antibody captured on Protein A chip, antigen in flow
T9 construct: bought; also called Human PD-L1-His; not shown: Avi and His tags of the bought product

[9] = biological target: T10, cPD-L1-His (Acro Biosystems, PD1-C52H4) (cynomolgus, UniProt Q9NZQ7 19-238 (human entry)); assay: as above
T10 construct: bought; also called Cyno PD-L1-His; Cynomolgus PD-L1-His; not shown: His tag of the bought product

[10] = biological target: T7, human PD-L1, cell-surface; assay: flow cytometry on activated primary human CD4+ T cells; activated primary human CD4+ T cells
Method: CD137 is rapidly expressed to high levels on activated CD8⁺ T cells and also on activated CD4⁺ T cells with lower levels (Xue-Zhong Yu et al, 2013), therefore Pan T cells were stimulated for 24 hours using Dynabeads™ Human T-Activator CD3/CD28 beads (Thermo, 11132D) according to manufacturer's instructions.
Dead cells were excluded and the fluorescence in the APC channel (638 nm 660/20) was measured to show test antibody binding. The geometric Mean Fluorescence Intensity (GMFI) values were plotted vs the log concentration of antibody and the resulting curves were fitted using the log (agonist) vs response equation in GraphPad Prism.

[11] = biological target: Human FcRn (Acro Biosystems, FCM-H5286) (human, UniProt P55899 24-297; P61769 21-119); assay: SPR, antibody immobilised, FcRn in flow, pH 6.0, steady state affinity; pH 6.0
Description: (§5) The neonatal Fc receptor (FcRn) binding is critical for antibody recycling (Martins et al., 2016). […] G1-AA/HeID1.3 was included as an isotype control IgG control lacking mutations in the CH3 domain.
(§6) Briefly, mAb² were individually coated on flow cell 2, 3 and 4 of Series S Sensor Chip CM5 (GE Healthcare, BR100530) to achieve a response of approximately 1000 RU. Flow cell 1 was activated/deactivated but left blank as a reference. Human FcRn (Acro Biosystems, FCM-H5286) or mouse FcRn (R&D systems, 9114-Fc) was dialysed and diluted in MHBS-EP⁺B pH 6.0 or pH 7.4 buffer (10 mM MES, FortéBio, 18-5026; 1×HBS-EP, GE Healthcare, BR100669; 0.1 mg/ml BSA, Sigma, A7906) and injected on flow cell 1, 2, 3 and 4 at 2000-3000 nM with 2-fold dilutions for 1 min at 80 μl/min and then allowed to dissociate in buffer for 3 min. […] Subtracted data (flow cell 2−flow cell 1, flow cell 3−flow cell 1, or flow cell 4−flow cell 1) was analysed using Biacore T200 Evaluation Software 2.0 to identify binding using the model steady state affinity.

[12] = biological target: T11, mouse FcRn (R&D systems, 9114-Fc) (mouse, UniProt Q61559 22-297; P01887 21-119, limits assumed); assay: as above
T11 sequence (looked up) 1: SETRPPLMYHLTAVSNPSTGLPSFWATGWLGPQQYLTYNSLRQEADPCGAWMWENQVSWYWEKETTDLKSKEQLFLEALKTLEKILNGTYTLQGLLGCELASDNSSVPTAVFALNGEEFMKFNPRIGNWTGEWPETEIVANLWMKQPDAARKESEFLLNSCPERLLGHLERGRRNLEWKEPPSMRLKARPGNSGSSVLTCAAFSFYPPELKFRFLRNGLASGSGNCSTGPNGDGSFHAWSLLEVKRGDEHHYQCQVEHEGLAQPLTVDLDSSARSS
T11 sequence (looked up) 2: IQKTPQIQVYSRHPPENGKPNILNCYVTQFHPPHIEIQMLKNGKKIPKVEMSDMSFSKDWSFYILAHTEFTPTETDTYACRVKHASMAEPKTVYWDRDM
Description: as §5, §6

T7 sequence (Q9NZQ7 19-290): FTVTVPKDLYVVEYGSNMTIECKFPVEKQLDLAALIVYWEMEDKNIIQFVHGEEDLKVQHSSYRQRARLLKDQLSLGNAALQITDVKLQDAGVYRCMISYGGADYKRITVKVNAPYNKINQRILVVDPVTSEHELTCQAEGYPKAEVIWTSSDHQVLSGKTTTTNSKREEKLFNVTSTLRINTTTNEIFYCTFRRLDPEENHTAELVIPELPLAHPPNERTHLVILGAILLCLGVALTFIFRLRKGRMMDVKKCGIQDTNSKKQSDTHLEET
T10 sequence (Q9NZQ7 other isoform, or with tags, fused parts or gaps): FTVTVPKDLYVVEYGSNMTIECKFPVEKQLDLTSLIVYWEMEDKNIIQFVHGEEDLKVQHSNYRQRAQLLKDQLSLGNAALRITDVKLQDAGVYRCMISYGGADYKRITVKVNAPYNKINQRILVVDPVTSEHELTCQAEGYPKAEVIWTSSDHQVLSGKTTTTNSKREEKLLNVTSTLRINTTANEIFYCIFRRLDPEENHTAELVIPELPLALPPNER
T8 sequence (chain, as listed by the source limits assumed): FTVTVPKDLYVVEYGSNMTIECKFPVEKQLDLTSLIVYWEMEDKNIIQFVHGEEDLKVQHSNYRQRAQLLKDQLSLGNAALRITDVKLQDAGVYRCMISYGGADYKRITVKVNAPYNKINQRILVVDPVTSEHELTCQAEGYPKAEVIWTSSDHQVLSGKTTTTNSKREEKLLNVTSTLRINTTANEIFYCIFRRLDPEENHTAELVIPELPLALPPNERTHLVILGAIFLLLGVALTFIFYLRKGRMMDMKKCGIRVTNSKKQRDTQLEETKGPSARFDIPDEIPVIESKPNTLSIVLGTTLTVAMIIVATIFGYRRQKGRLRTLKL
Chain of Human FcRn (Acro Biosystems, FCM-H5286) (P55899 24-297 limits assumed, chain 1 of 2): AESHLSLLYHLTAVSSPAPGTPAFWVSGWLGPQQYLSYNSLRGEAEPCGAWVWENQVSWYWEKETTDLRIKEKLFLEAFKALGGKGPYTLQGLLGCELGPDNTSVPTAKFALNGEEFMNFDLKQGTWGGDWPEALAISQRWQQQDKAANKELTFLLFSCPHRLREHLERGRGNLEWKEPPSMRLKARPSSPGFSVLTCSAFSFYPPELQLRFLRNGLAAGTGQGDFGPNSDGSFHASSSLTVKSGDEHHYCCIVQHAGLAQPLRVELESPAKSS
Chain of Human FcRn (Acro Biosystems, FCM-H5286) (P61769 21-119 limits assumed, chain 2 of 2): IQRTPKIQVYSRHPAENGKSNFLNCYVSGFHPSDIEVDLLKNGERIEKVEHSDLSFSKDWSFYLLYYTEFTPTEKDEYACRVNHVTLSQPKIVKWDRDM
T9 sequence (Q9NZQ7 19-238): as the sequence (Q9NZQ7 other isoform, or with tags, fused parts or gaps) above, with T33A, S34A, N62S, Q68R, R82Q, L173F, A185T, I192T, L215H counted along it
Chain of human CD40 (P25942 21-193 limits assumed): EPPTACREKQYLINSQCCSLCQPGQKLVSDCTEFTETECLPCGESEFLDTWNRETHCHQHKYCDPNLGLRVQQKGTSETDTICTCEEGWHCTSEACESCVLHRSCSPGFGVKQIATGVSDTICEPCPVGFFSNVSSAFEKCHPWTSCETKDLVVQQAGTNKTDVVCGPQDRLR
T4 sequence (Q07011 24-186): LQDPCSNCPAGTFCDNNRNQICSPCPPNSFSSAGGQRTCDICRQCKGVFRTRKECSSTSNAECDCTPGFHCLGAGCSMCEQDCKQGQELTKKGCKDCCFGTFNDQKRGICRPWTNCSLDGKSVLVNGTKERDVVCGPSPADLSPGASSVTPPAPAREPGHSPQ
T3 sequence (Q07011 24-186): as above

B1: FS22-053-014/HeID1.3 (bispecific antibody, human IgG1, kappa)
heavy: QVQLQESGPGLVRPSQTLSLTCTVSGSTFSGYGVNWVRQPPGRGLEWIGMIWGDGNTDYNSALKSRVTMLVDTSKNQFSLRLSSVTAADTAVYYCARERDYRLDYWGQGSLVTVSSASTKGPSVFPLAPSSKSTSGGTAALGCLVKDYFPEPVTVSWNSGALTSGVHTFPAVLQSSGLYSLSSVVTVPSSSLGTQTYICNVNHKPSNTKVDKKVEPKSCDKTHTCPPCPAPELLGGPSVFLFPPKPKDTLMISRTPEVTCVVVDVSHEDPEVKFNWYVDGVEVHNAKTKPREEQYNSTYRVVSVLTVLHQDWLNGKEYKCKVSNKALPAPIEKTISKAKGQPREPQVYTLPPSRDELNPPYLFSNQVSLTCLVKGFYPSDIAVEWESNGQPENNYKTTPPVLDSDGSFFLYSKLTVYHWRWLDGNVFSCSVMHEALHNHYTQKSLSLSPG
light: DIQMTQSPASLSASVGETVTITCRASGNIHNYLAWYQQKQGKSPQLLVYNAKTLADGVPSRFSGSGSGTQYSLKINSLQPEDFGSYYCQHFWSTPRTFGGGTKLEIKRTVAAPSVFIFPPSDEQLKSGTASVVCLLNNFYPREAKVQWKVDNALQSGNSQESVTEQDSKDSTYSLSSTLTLSKADYEKHKVYACEVTHQGLSSPVTKSFNRGEC
notes: mock mAb^2; also called FS22-053-014 (mock mAb^2 format); FS22-053-14
- +XL EC50 (nM), mouse CD137 DO11.10 T cell activation assay [1]: 2.04 nM
- +XL Emax (IL-2 pg/ml), mouse CD137 DO11.10 T cell activation assay [1]: 28100 pg/mL
- binding result (human CD40): no binding (tested: 1 µM)
- binding result (human OX40): no binding (tested: 1 µM)
- binding result (human GITR): no binding (tested: 1 µM)
- Kd (hCD137-mFc-Avi): 3.2 nM
- Human monomeric CD137 KD fold difference relative to human dimeric KD (hCD137-Avi-His): 100 fold
- Kd (cCD137-mFc-Avi): 0.9 nM
- Kd (mCD137-mFc-Avi): 24 nM

B2: G1-AA/E12v2 (antibody, human IgG1, kappa, L234A L235A, V domains shown)
VH: EVQLVQSGAEVKRPGASVKVSCKASGYPFTSYGISWVRQAPGQGLEWMGWISAYSGGTNYAQKLQGRVTMTTDTSTSTAYMELRSLRSDDTAVYYCARDLFPTIFGVSYYYYWGQGTLVTVSS
VL: DIQMTQSPSTLSASVRDRVIITCRASQSIGNRLAWYQHKPGKAPKLLIYEASTSETGVPSRFSGSGSGTDFTLTISSLQPEDFATYYCQQSYSTPYTFGQGTKLEIKR
notes: anti-PD-L1 IgG1 with LALA
- EC50 (nM), IFN-γ release, human MLR [2]: 0.08 nM
- EC50 (nM), IFN-γ release, CEFT antigen recall assay (CD4+ T cell activation) [3]: 0.06 nM
- EC50 (nM), IFN-γ release, CEF antigen recall assay (CD8+ T cell activation) [4]: 0.04 nM
- EC50 (nM), mouse IL-2 release, DO11.10 / LK35.2 PD-L1 blockade assay [5]: 1.19 nM
- EC50 [6]: 0.6 nM
- EC50 [7]: 3.1 nM
- Kd [8]: 0.21 nM
- Kd [9]: 0.37 nM
- EC50 [10]: 0.8 nM

B3: G1-AA/HeID1.3 (antibody, human IgG1, kappa, L234A L235A)
heavy: not shown
light: B1 light
notes: anti-hen egg lysozyme IgG1 with LALA, isotype control
- Kd [11]: 1230 nM
- Kd [12]: 160 nM
